The record followed here is patent US20210380703A1 (RIGEL PHARMACEUTICALS, published 2021).

The chains are these.
B1: 369_A05 (antibody, V domains shown)
VH: EVQLLESGGGLVQPGGSLRLSCAASGFTFSSYSMNWVRQAPGKGLEWVAGINYNGGYTGYADSVKGRFTISRDNSKNTLYLQMNSLRAEDTAVYYCARSATWHDTHLDYWGQGTLVTVSS
VL: DIQMTQSPSSLSASVGDRVTITCRASQSILTYVNWYQQKPGKAPKLVIYAATSRASGVPSRFSGSGSGTDFTLTISSLQPEDFATYYCQQSYESPLTFGGGTKVEIK
notes: VH/VL only
B2: 371_H01 (antibody, V domains shown)
VH: B1 VH with S30D
VL: not shown
notes: VH/VL only
B3: 373_B11 (antibody, V domains shown)
VH: B1 VH with G50N, G55S, T58K
VL: B1 VL with T31S, V33L, V47L, E93D, S94N
notes: VH/VL only
B4: 369_B02 (antibody, V domains shown)
VH: B1 VH with S30D, A49S, T58K, G59S
VL: B1 VL with T31S, V33L, E93N, S94L
notes: VH/VL only
B5: 369_F12 (antibody, V domains shown)
VH: B1 VH with G50S, G55S, T58K, G59S
VL: B1 VL with L30I, T31S, V33L, V47L, A51V, R54L, S94N
notes: VH/VL only
B6: 371_C09 (antibody, V domains shown)
VH: B1 VH with S30D, A49S, T58K, G59S
VL: B1 VL with V47L, T52S, R54L, A55Q, E93D, S94N
notes: VH/VL only
B7: 369_B12 (antibody, V domains shown)
VH: B1 VH with S30D, A49S, T58K, G59S
VL: B1 VL with V47L, A51T, R54L, E93D
notes: VH/VL only
B8: 369_B09 (antibody, V domains shown)
VH: B1 VH with S30D, S33G, N35H, G50S, G59S
VL: B1 VL with V33L, V47L, S94N
notes: VH/VL only
B9: 372_D04 (antibody, V domains shown)
VH: B1 VH with G50N, G55S
VL: B1 VL with V33L, V47L, R54L, A55H, E93D, S94L
notes: VH/VL only
B10: 369_G07 (antibody, V domains shown)
VH: B1 VH with G59S
VL: B1 VL with E93D, S94N
notes: VH/VL only
B11: 370_C04 (antibody, V domains shown)
VH: B1 VH with S33G, G50S, G55S, G59S
VL: B1 VL with T31S, V33L, V47L, T52S, R54L, A55Q, S94N
notes: VH/VL only
B12: 370_B05 (antibody, V domains shown)
VH: B1 VH with S33G, G50S, G59S
VL: B1 VL with S94N
notes: VH/VL only
B13: 369_C10 (antibody, V domains shown)
VH: B1 VH with G50N, G59S, H106A
VL: B1 VL with L30V, V33L, V47L, R54L, A55H, Y92D, E93S, S94L
notes: VH/VL only
B14: 373_E02 (antibody, V domains shown)
VH: B1 VH with S30D, S33G, N35H, A49S, T58K
VL: not shown
notes: VH/VL only
B15: 372_F07 (antibody, V domains shown)
VH: B1 VH with S30D, S31D, G55S, T58K
VL: B1 VL with V33L, S94L
notes: VH/VL only
B16: 371_G03 (antibody, V domains shown)
VH: B1 VH with S33G, G50N, T58K
VL: B1 VL with L30V, R54L, E93N, S94L
notes: VH/VL only
B17: 373_B08 (antibody, V domains shown)
VH: B1 VH with S30D, G50N, G55S, T58K
VL: B1 VL with V33L, R54L, S94N
notes: VH/VL only
B18: 373_C09 (antibody, V domains shown)
VH: B1 VH with S30D, G55S, T58K, G59S
VL: B1 VL with V33L, S94L
notes: VH/VL only
B19: 370_F08 (antibody, V domains shown)
VH: B1 VH with S30D, G59S
VL: B1 VL with L30I, T31S, V47L, A55H, E93N, S94L
notes: VH/VL only
B20: 373_E03 (antibody, V domains shown)
VH: B1 VH with S30D, S33G, A49S, G50N, H106A
VL: B1 VL with T31S, E93D, S94L
notes: VH/VL only
B21: 370_H03 (antibody, V domains shown)
VH: B1 VH with S30D, G55S, T58K
VL: B1 VL with V33L, V47L, R54L, E93D, S94T
notes: VH/VL only
B22: 369_F07 (antibody, V domains shown)
VH: B1 VH with S30D, T58K, G59S
VL: B1 VL with T31S
notes: VH/VL only
B23: 370_A06 (antibody, V domains shown)
VH: B1 VH with G50S, G55S, T58K, G59S
VL: B1 VL with L30V, V33L, R54L, E93D, S94L
notes: VH/VL only
B24: 370_E07 (antibody, V domains shown)
VH: B1 VH with S30D, G50N
VL: B1 VL with V33L, V47L, E93D, S94N
notes: VH/VL only
B25: 371_F05 (antibody, V domains shown)
VH: B1 VH with G55S, T58K, G59S
VL: B1 VL with T31S, V33L, V47L, A55H, S94N
notes: VH/VL only
B26: 369_A10 (antibody, V domains shown)
VH: B1 VH with S30D, G55S
VL: B1 VL with T31S, V33L, V47L, S94L
notes: VH/VL only
B27: 369_D11 (antibody, V domains shown)
VH: B1 VH with S33G, N35H, G50S, G59S
VL: B1 VL with V33L, R54L, Y92D, S94L
notes: VH/VL only
B28: 370_G12 (antibody, V domains shown)
VH: B1 VH with T58K, H106A
VL: B1 VL with L30I, V33L, V47L, R54L, Y92D
notes: VH/VL only
B29: 369_E10 (antibody, V domains shown)
VH: B1 VH with A49S, G50N, T58K, G59S, H106A
VL: B1 VL with T31S, E93D, S94L
notes: VH/VL only
B30: 373_B03 (antibody, V domains shown)
VH: B1 VH with G55S, T58K, G59S
VL: B1 VL with V33L, R54L, E93D, S94N
notes: VH/VL only
B31: 371_D03 (antibody, V domains shown)
VH: B1 VH with S30D, S33G, G50N, G59S, H106A
VL: B1 VL with R54L, E93N, S94T
notes: VH/VL only

Substitutions are numbered along the chain they refer to.
Also: test concentration or dose not given here.

Chain of mouse ACVR2A (P27038 20-135 limits assumed): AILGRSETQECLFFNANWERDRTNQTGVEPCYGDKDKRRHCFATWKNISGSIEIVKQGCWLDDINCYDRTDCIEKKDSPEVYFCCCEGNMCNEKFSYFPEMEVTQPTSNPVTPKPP

In one test the target is human ACVR2A (human, UniProt P27037 20-135, limits assumed). The experiment in a line: ELISA. Put shortly: (§1)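 Binding signal was read by ELISA after ACVR2A-specific monoclonal antibodies were tested against human ACVR2A and mouse ACVR2A, with human Fc as the negative control.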
Chain of human ACVR2A (P27037 20-135 limits assumed): as the sequence (P27038 20-135 limits assumed) above, with R20K, I73V counted along it
As for B1, the optical density was 3.29 OD.

In turn, B2 yielded an optical density of 3.03 OD.

B3 gave an optical density of 3.72 OD.

In the case of B4, the optical density amounted to 3.4 OD.

Regarding B5, the optical density came to 2.73 OD.

Molecule B6 came in with an optical density of 3.37 OD.

In turn, B7 registered an optical density of 2.67 OD.

In the case of B8, the optical density was 1.62 OD.

With B9, the optical density stood at 3.4 OD.

B10 returned an optical density of 3.32 OD.

Turning to B11, the optical density stood at 2.32 OD.

As to B12, the optical density came to 2.84 OD.

As to B13, the optical density was determined as 2.48 OD.

On to B14, for which the optical density worked out at 3.61 OD.

B15 registered an optical density of 3.25 OD.

With B16, the optical density was determined as 3.12 OD.

B17 registered an optical density of 3.7 OD.

B18: the optical density was found to be 3.64 OD.

As to B19, the optical density amounted to 2.34 OD.

For the molecule B20, the optical density came out at 3.46 OD.

Consider B21, for which the optical density turned out to be 3.43 OD.

B22 registered an optical density of 3.43 OD.

Molecule B23 yielded an optical density of 2.59 OD.

The molecule B24 registered an optical density of 3.44 OD.

B25 showed an optical density of 2.89 OD.

Consider B26, for which the optical density amounted to 3.38 OD.

As to B27, the optical density was determined as 2.99 OD.

Regarding B28, the optical density came to 1.34 OD.

Molecule B29 had an optical density of 3.36 OD.

B30 displayed an optical density of 3.64 OD.

B31: the optical density was determined as 1.54 OD.

Another test addresses mouse ACVR2A (mouse, UniProt P27038 20-135, limits assumed). Description: ELISA. The gist of the method:
as §1
Turning to B1, the optical density was 3.25 OD.

For the molecule B2, the optical density stood at 3 OD.

B3 had an optical density of 3.65 OD.

B4 yielded an optical density of 3.55 OD.

For the molecule B5, the optical density turned out to be 2.82 OD.

Regarding B6, the optical density came out at 3.29 OD.

As to B7, the optical density worked out at 2.76 OD.

Molecule B8 gave an optical density of 1.58 OD.

As for B9, the optical density came to 3.41 OD.

Regarding B10, the optical density came to 3.37 OD.

Molecule B11 came in with an optical density of 2.63 OD.

With B12, the optical density amounted to 3.11 OD.

B13 had an optical density of 2.46 OD.

In turn, B14 gave an optical density of 3.64 OD.

As for B15, the optical density is 3.24 OD.

B16 came in with an optical density of 3.27 OD.

B17 showed an optical density of 3.66 OD.

Molecule B18 yielded an optical density of 3.6 OD.

Molecule B19 yielded an optical density of 2.99 OD.

For the molecule B20, the optical density was found to be 3.46 OD.

Molecule B21 registered an optical density of 3.56 OD.

Molecule B22 registered an optical density of 3.43 OD.

Consider B23, for which the optical density came out at 2.77 OD.

Molecule B24 had an optical density of 3.5 OD.

With B25, the optical density came to 3.15 OD.

Turning to B26, the optical density was 3.14 OD.

The molecule B27 returned an optical density of 2.99 OD.

B28 gave an optical density of 1.6 OD.

Take B29: the optical density was 3.53 OD.

In the case of B30, the optical density was 3.62 OD.

Regarding B31, the optical density came to 1.83 OD.

The next test concerns the target T1, biotinylated goat anti-human kappa light chain.
T1 construct: Positive control of the ELISA
The experiment in a line: ELISA; positive control. The gist of the method: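 mAb binding by ELISA; antigens: hu ACVR2A, mu ACVR2A; pos ctrl biotinylated goat anti-hu kappa LC; neg ctrl hu Fc.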
In turn, B1 came in with an optical density of 3.48 OD.

For B2, the optical density worked out at 3.69 OD.

For the molecule B3, the optical density was found to be 3.22 OD.

In turn, B4 yielded an optical density of 3.52 OD.

For B5, the optical density came out at 3.6 OD.

Molecule B6 displayed an optical density of 3.39 OD.

Regarding B7, the optical density came to 3.56 OD.

B8 registered an optical density of 2.22 OD.

In turn, B9 had an optical density of 3.38 OD.

For the molecule B10, the optical density stood at 2.98 OD.

Take B11: the optical density is 3.6 OD.

B12 returned an optical density of 3.49 OD.

For B13, the optical density is 3.37 OD.

B14 gave an optical density of 2.92 OD.

For the molecule B15, the optical density was 3.4 OD.

In turn, B16 registered an optical density of 3.59 OD.

In the case of B17, the optical density stood at 3.22 OD.

The molecule B18 yielded an optical density of 3.22 OD.

As to B19, the optical density was 3.59 OD.

Consider B20, for which the optical density was determined as 3.25 OD.

Turning to B21, the optical density came to 3.56 OD.

B22 displayed an optical density of 3.47 OD.

In the case of B23, the optical density stood at 3.47 OD.

Molecule B24 displayed an optical density of 3.45 OD.

The molecule B25 returned an optical density of 3.33 OD.

B26 registered an optical density of 3.41 OD.

As for B27, the optical density worked out at 3.45 OD.

Consider B28, for which the optical density was 3.52 OD.

B29 came in with an optical density of 3.59 OD.

As to B30, the optical density stood at 3.16 OD.

For B31, the optical density is 3.57 OD.
